By Kd is commonly meant the equilibrium constant for the complex coming apart.

Assay [1] addresses acetylcholine receptor on AchR-overexpressed TE671 cells. Put plainly: cell-based or functional assay.
Assay [2] deals with acetylcholine receptor protein. The experiment in a line: SPR, AchR on CM5 chip, positive control. (SPR reads the build-up and loss of mass on a sensor chip optically.)

bungarotoxin: the IC50 value for AchR (AchR inhibitory effect in TE671 cells) in assay [1] came to 0.0075 µM.
As for Synake (peptide), the IC50 value for AchR (AchR inhibitory effect in TE671 cells) in assay [1] is 75 µM. For the same substance, the Kd in assay [2] was 2300 µM.

Source of the values: patent publication US20220110851A1.
